Source: patent US12036274B2, “Recombinant MPT protein derived from MPT63 and MPT64 and use thereof” (priority 2021, dated 2024)

T1: TBK1 and HK2 (Homo sapiens, UniProt Q9UHD2)
T1 construct: endogenous in cells; host or cells: THP-1
T1 sequence (Q9UHD2 1-729): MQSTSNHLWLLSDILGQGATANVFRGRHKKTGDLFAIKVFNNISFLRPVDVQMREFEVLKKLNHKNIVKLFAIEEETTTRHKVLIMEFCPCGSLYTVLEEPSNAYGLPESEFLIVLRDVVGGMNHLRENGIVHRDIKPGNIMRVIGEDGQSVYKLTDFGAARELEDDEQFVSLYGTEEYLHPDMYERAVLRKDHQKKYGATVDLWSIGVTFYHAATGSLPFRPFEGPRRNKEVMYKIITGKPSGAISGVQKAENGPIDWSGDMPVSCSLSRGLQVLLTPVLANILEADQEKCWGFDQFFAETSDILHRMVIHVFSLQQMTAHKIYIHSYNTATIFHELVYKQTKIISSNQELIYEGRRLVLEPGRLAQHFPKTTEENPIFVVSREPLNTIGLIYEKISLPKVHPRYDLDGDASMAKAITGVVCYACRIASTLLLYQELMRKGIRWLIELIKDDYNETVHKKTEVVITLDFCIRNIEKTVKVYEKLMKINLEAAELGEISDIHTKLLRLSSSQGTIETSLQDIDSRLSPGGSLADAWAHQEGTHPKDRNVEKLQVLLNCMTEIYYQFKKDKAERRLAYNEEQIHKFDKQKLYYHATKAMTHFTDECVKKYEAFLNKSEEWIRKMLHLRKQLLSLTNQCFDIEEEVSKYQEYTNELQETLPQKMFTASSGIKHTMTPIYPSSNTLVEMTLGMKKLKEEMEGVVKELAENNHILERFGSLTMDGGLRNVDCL

T2: p47phox (Homo sapiens, UniProt P14598)
T2 sequence (P14598 1-390): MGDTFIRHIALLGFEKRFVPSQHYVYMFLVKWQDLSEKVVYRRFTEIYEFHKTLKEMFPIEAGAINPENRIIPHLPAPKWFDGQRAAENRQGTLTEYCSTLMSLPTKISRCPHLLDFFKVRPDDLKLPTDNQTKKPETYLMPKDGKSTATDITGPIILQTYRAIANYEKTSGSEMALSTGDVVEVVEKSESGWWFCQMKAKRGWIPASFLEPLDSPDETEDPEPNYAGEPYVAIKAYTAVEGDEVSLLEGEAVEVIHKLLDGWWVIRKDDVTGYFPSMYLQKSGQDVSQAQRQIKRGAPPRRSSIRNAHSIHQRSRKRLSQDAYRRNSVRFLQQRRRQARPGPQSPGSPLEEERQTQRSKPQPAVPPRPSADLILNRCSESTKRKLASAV

B1: MPT64: secreted antigen of Mycobacterium tuberculosis, recombinant, produced in a bacterial expression system (protein)
chain: APKTYCEELKGTDTGQACQIQMSDPAYNINISLPSYYPDQKSLENYIAQTRDKFLSAATSSTPREAPYELNITSATYQSAIPPRGTQAVVLKVYQNAGGTHPTTTYKAFDWDQAYRKPITYDTLWQADTDPLPVVFPIVQGELSKQTGQQVSIAPNAGLDPVNYQNFAVTNDGVIFFFNPGELLPEAAGPTQVLVPRSAIDSMLA
modifications: left off: small tags and cut ends
notes: secreted antigen of Mycobacterium tuberculosis, recombinant, produced in a bacterial expression system
B2: MPT63: secreted antigen of Mycobacterium tuberculosis, recombinant, purified with the 6×His bacterial expression system (protein)
chain: AYPITGKLGSELTMTDTVGQVVLGWKVSDLKSSTAVIPGYPVAGQVWEATATVNAIRGSVTPAVSQFNARTADGINYRVLWQAAGPDTISGATIPQGEQSTGKIYFDVTGPSPTIVAMNNGMEDLLIWEP
modifications: left off: small tags and cut ends
notes: secreted antigen of Mycobacterium tuberculosis, recombinant, purified with the 6×His bacterial expression system

Experiments:
TBK1 = TBK1 (Homo sapiens, UniProt Q9UHD2); conditions: read-out: Kd of interaction with TBK1; fluorescently labeled protein titrated with unlabeled TBK1, curve fitting, 25° C., pH 7.4
Experimental: (§1) The interaction of MPT63-TBK1 with p47phox and the interaction of MPT64-TBK1 with HK2 were monitored using a Fluoromax-4 spectrofluorometer (HORIBA Scientific) which was performed as previously described (Guo et al., 2005). MPT63 and MPT64, respectively, were labeled with BODIPY FL Iodoacetamide (ThermoFisher Scientific) according to the manufacturer's instructions. The labeled MPT63 or MPT64 was excited at 350 nm and detected through a cutoff filter at 512 nm. The fluorescently labeled MPT63 or MPT64 was titrated with unlabeled TBK1, p47phox or HK2 for kinetic analysis. The excitation and emission wavelengths were 498 mm and 518 nm, respectively. The obtained data were verified using the Grafit program, and all fluorescence measurements were performed at 25° C. in 30 mM Tris, pH 7.4, 150 mM NaCl and 1 mM dithiothryitol.

HK2 = HK2 (Homo sapiens, UniProt P52789)
Chain of HK2 (P52789 whole entry): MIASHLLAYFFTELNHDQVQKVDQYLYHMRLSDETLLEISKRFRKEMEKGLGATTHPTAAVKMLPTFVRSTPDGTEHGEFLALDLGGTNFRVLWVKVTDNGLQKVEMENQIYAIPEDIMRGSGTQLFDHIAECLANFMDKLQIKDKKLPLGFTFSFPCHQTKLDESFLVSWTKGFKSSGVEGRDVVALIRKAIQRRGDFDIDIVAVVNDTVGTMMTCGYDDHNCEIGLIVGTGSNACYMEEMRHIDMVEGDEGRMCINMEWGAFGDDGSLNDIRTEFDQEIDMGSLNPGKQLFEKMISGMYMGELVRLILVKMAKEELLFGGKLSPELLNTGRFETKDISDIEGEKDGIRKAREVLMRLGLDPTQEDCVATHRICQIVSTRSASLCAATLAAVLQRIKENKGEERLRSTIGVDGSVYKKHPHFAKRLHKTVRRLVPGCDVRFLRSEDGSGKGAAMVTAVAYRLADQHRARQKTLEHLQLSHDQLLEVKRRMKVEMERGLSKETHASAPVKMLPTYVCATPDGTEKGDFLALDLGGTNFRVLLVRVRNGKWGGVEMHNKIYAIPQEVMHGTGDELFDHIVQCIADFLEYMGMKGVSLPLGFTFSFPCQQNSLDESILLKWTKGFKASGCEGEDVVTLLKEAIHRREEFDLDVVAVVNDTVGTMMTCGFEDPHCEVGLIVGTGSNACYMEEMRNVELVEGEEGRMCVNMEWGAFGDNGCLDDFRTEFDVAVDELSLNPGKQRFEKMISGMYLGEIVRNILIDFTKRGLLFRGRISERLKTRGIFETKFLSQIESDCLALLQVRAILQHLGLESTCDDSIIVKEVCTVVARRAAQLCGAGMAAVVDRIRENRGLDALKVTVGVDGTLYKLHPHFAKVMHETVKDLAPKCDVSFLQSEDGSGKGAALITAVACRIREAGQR
Experimental: as §1

TBK1 and HK2 = molecular target: T1, TBK1 and HK2; experiment: Co-immunoprecipitation of rMPT64 in THP-1 cells; assay type: cell-based; conditions: 5 μg/ml
p47phox = molecular target: T2, p47phox; conditions: read-out: Kd of interaction with p47phox; fluorescently labeled MPT63 titrated with unlabeled p47phox, 25° C., pH 7.4
Experimental: as §1

TBK1 and p47phox = experiment: Co-immunoprecipitation of rMPT63 in THP-1 cells; assay type: cell-based, human; conditions: 5 μg/ml

| Molecule | Kd (TBK1) | Kd (HK2) | interaction with phosphorylated TBK1 (S172) (TBK1 and HK2) | Kd (p47phox) | endogenous interaction with TBK1 and p47phox (TBK1 and p47phox) |
| --- | --- | --- | --- | --- | --- |
| B1 | 193 nM | 134 nM | interacts | – | – |
| B2 | 178 nM | – | – | 345 nM | endogenously interacted |
